Blank lines part the entries; values can stand above or below the molecule they belong to.
How the values were obtained:
[1] = Temperature-induced unfolding by fluorescence and CD, irreversible models (Example 1); assay type: physicochemical
Experimental: A1-1261 and A1-1238 were thermally unfolded using intrinsic protein tyrosine and tryptophan fluorescence with an excitation λ=280 nm and emission λ=359 nm and CD monitored at λ=222 nm. […] As the scan rate increases, the midpoint of the transition (apparent TM) also increases.
Thermal transitions were analyzed in terms of the observed midpoint of the transition, apparent TM, and also by a two-state irreversible model or a three-state irreversible model as described in the Supplement and the calculated parameters are summarized in FIGS. 5A to 5D. […] If the protein unfolding was at equilibrium and reversible, this apparent TM would remain constant at all scan rates. Extrapolation of the TM to a scan rate of 0° Celsius/min provides an indication of where reversible unfolding would occur under equilibrium conditions; 50° Celsius for A1-1238 and 48° Celsius for A1-1261 from both CD and fluorescence data. For the second transition observed by fluorescence that occurs with A1-1238, the TM extrapolates to about 73° Celsius in the limit of zero scan rate. Analysis by the two-state and three-state irreversible models yields an R^2>0.99 for both fluorescence and CD and a transition temperature, T*, that is independent of the temperature scan rate. In addition, the enthalpies of the transitions are independent of scan rate within experimental error FIG. 5B. FIGS. 5C and 5D show the resulting average T* and ΔHT*^‡±the standard deviation obtained from the fitting of the primary thermal transitions in FIG. 4A to 4D for CD and fluorescence and a total average for both methods. […] However, the unfolding enthalpy was statistically larger for A1-1238 (250±15 kJ/mol) than for A1-1261 (204±10 kJ/mol). The average T* and ΔHT*^‡ observed in the second fluorescence transition of A1-1238 is 89.1±2.2° Celsius and 360±14 kJ/mol.
(§1) Prior to all spectroscopic thermal scans, protein samples were equilibrated at 10° Celsius for 15 min to obtain a stable baseline. CD thermal scans between 10 and 95° Celsius were recorded at λ=222 nm using a protein concentration of 1 or 2 μM in a 1 cm quartz cell under moderate stirring. Scan rates were 0.5, 1.0, 1.5 and 2.0° Celsius/min. Integration time for each data point was 20 s with a 1 nm bandwidth. Fluorescence thermal scans between 10 and 95 Celsius were recorded at an emission λ=359 nm after excitation λ=280 nm or λ=295 nm using 2 μM protein in a 1 cm quartz cell with moderate stirring. Scan rates were 0.4 or 0.6, 0.9, 1.6 and 2.0° Celsius/min. At each temperature, relative fluorescence intensity was collected for 4 s and averaged. Thermal scans in the presence of N-terminal peptide at 2.0° Celsius/min were preceded by 1 h incubations at 20° Celsius with 0.02-300 μM peptide.
For an irreversible two-state transition, unfolding is kinetically controlled by a first order rate constant that varies with temperature according to the Arrhenius equation (Atkins:1994). In our analysis the inventor refers to the intermediate state as the final irreversible state for all thermal transitions involving the unfolding of A1-1261 in the absence of peptide when monitored by fluoresence, CD and DSC and for A1-1238 when monitored by CD and DSC. The following equations derived below are equally valid for any two state irreversible transitions The activation energy in going from N->I is ΔG^‡=−RT ln k^‡ and the inventor expands ln k^‡ as a function of temperature in terms of Δβ=(β−β*)=(1/RT−1/RT*) using a Taylor series, where T̂* is the temperature at which ΔG^‡=0.

platelet GP1bα [2] = assay: Platelet pause times and translocation velocities on immobilized A1 under shear flow, parallel-plate flow chamber (Example 1); assay type: cell-based, human; conditions: 5 μM protein immobilized; as a function of shear rate
Text: (§2) To understand the effect of the N-terminal peptide on the function of the A1-domain of vWF, the protein was expressed with (A1-1238) and without the N-terminal peptide (A1-1261). The inventor used a flow chamber to measure the dynamics of platelet interactions with A1-1238 and A1-1261. Each domain variant was immobilized on glass slides with a modified Cu^2+ chelating chemistry that enabled surface capture via the N-terminally fused histidine tag. This method ensured reproducible capture of the proteins eliminating possible structural issues associated with nonspecific immobilization on plastic or glass. The slides were completely inert to platelets. Next, 1 mL of citrated whole blood followed by Tris buffered saline was perfused at low shear to enable platelets to attach to the surface immobilized domains. After red cells were perfused away with buffer, the translocation of the remaining attached platelets over the surfaces was recorded at each shear rate and the velocities and pause times calculated from the coordinate data of each platelet on the surface as described in the methods. […] In addition, the translocation velocities were increased for A1-1238 relative to A1-1261. To determine if this N-terminal sequence could inhibit the catch bond when free in solution, the inventor incubated surface immobilized A1-1261 with excess free peptide and added the free peptide to 1 mL of whole blood and to our perfusion buffer and performed the assay.
(§3) Determination of platelet pause times. Determination of platelet pause times A Glycotech† rectangular parallel-plate flow chamber was mounted to slides with a chelated Cu 21 surface obtained from Microsurfaces Inc. # to which the A1-1261 and A1-1238 domains in TBS were immobilized by the 63His-Tag. Citrated whole blood (1 mL) obtained from informed consent of healthy donors with approval from the Baylor College of Medicine institutional review board followed by buffer was perfused through the chamber at 300s21 for A1-1261 and 700s21 for A1-1238 shear rate to attach platelets to the surface immobilized proteins using a syringe driven variable flow rate pump. The shear was increased incrementally and 1 min movies were recorded at 25 frames/s in phase contrast with 232 pixel binning on a Zeiss Axiocam MRm camera attached to a Zeiss Axio Observer D1 inverted microscope. Tracking analysis was performed using Mediacybernetics ImagePro Premier§. The resulting X-Y coordinate data for each platelet track was differentiated into instantaneous velocities using a Savitzky-Golay algorithm (Savitzky:1964) with a five data point window size and a second-order polynomial implemented into a Mathamatica notebook. These platelet tracks were retained for statistical analysis if the platelet was present for at least 1 s and travelled a total distance greater than 1 lm. Distance travelled in pixels was converted to lm given the camera pixel size=6.45 μm^2, pixel binning, and microscope magnification=400×. Pause times were determined by the amount of time (seconds) a platelets velocity was =0±0.13 μm/s, within the noise. Pause times for all platelet tracks are reported as the mean of the medians. Examples of this analysis for individual platelets and for multiple platelets are provided in the Supporting Information.
(§4) Frame by frame platelet trajectory analysis. Tracking coordinates of individual platelets in units of pixels were exported from ImagePro Premier as a text file and imported into a Mathematica notebook that calculates a Savitzky-Golay first derivative of the total distance traveled over time (Savitzky:1964). The distance was calculated from the X and Y coordinates with the following equation.
(§5) Pause times were determined from the length of time the platelet velocity remained within 0±4 pixel/sec=0.129 μm/sec as illustrated in FIG. 8B. Median pause times were calculated from velocity time profiles for all platelet tracks, stored in a list and translated to histograms for multiple platelets. […]

A1-1261 = target: T1, A1-1261 (Homo sapiens, UniProt P04275); assay: Binding of free N-terminal peptide to A1-1261 from thermal unfolding enthalpy (tryptophan fluorescence); conditions: for Apparent TM of primary transition / Enthalpy of the unfolding transition ΔHT*‡: 2° Celsius/min
T1 construct: A1-1261 (amino acids D1261-P1471); made in house
Text: (§6) This would imply a specific interaction between this N-terminal sequence and the A1 domain when covalently linked in sequence. The only way to examine such a stabilization using spectroscopy was the measurement of thermal unfolding via fluorescence. Since the N-terminal peptide also contains a single tyrosine residue, the excitation wavelength was changed to λ=295 nm in order to measure tryptophan fluorescence and the effect of the peptide on the unfolding of the A1-domain was observed indirectly. Thermal scans of 2 μM A1-1261 were performed as a function of increasing amounts of the N-terminal peptide at 2° Celsius/min. […] Thermal scans were also done in the presence of a peptide with the same amino acid composition, but a scrambled sequence. The inset of FIG. 7A compares the raw fluorescence thermal scans in the presence of 300 μM scrambled and N-terminal peptides. Unfolding in the presence of excess scrambled peptide was equivalent to unfolding in the absence of either peptide. […] Fitting the enthalpy data to a simple single site binding model yields a dissociation constant of ≈46±6 μM.
as §1
For the thermal unfolding studies in the presence of peptide, the inventor treated the change in enthalpy of unfolding, ΔHT*^‡ as an observable directly proportional to the degree of binding, X, because the T* was not dependent on peptide concentration.
For the simple single site binding model, A1+P<->A1P, where P is the peptide, the degree of binding is given by
where K is the binding affinity and the free peptide, [P], concentration is given in terms of the total protein, A1T, and peptide, PT, concentrations.

[3] = target: T2, platelet GP1bα (Homo sapiens); assay: Platelet pause times and translocation velocities on immobilized A1 under shear flow, parallel-plate flow chamber (Example 1); assay type: cell-based; conditions: 300 μM peptide incubated with immobilized A1-1261; 66 μM in whole blood and buffer
T2 construct: perfused at low shear to enable platelets to attach to the surface immobilized domains; endogenous in cells; host or cells: platelets in citrated whole blood of healthy donors
Text: as §2, §3, §4, §5

platelet GP1bα [4] = target: T3, platelet GP1bα (Homo sapiens, UniProt P04275); assay: as above; assay type: cell-based; conditions: free peptide added
T3 construct: perfused at low shear to enable platelets to attach to the surface immobilized domains; endogenous in cells; host or cells: platelets in citrated whole blood of healthy donors
Text: as §2, §3, §4, §5

[5] = target: T4, Recombinant human vWF A1-1261 (amino acids D1261-P1471), N-terminal truncated variant (human, UniProt P04275 1261-1471); assay: thermal unfolding of 2 µM A1-1261, tryptophan fluorescence at 359 nm (excitation 295 nm)
T4 construct: Lacks the linker residues Q1238-E1260; also called truncated A1
Text: as §6, with “indirectly.” for “indirectly. Thermal scans of 2 μM A1-1261 were performed as a function of increasing amounts of the N-terminal peptide at 2° Celsius/min.”

[6] = A1-1261 in presence of free N-terminal peptide

Molecule: A1-1261: N-terminal truncated recombinant human vWF A1 domain, amino acids D1261-P1471, with N-terminal 6×His-Tag
Average T*, peptide-induced second fluorescence transition [1, 6]: 90.1±8.5 ° Celsius
Average ΔHT*‡, peptide-induced second fluorescence transition [1, 6]: 33.9 ± 8.87 kcal/mol
Apparent TM extrapolated to a scan rate of 0° Celsius/min, primary transition ([1]; CD and fluorescence data): 48 ° Celsius
Transition temperature T*, primary unfolding transition ([1]; average of CD and fluorescence): 64.5±0.9 ° Celsius
Unfolding enthalpy ΔHT*‡, primary unfolding transition ([1]; average of CD and fluorescence): 48.8 ± 2.39 kcal/mol
Platelet pause times on immobilized domain (comparison) (platelet GP1bα [2]): longer pause times than A1-1238
Apparent TM of primary transition (A1-1261; 2 μM A1-1261, absence of peptide, excitation 295 nm): 53 ° Celsius
Enthalpy of the unfolding transition ΔHT*‡ (A1-1261; 2 μM A1-1261, low end of N-terminal peptide titration): ≈ 197 kJ/mol
Enthalpy of the unfolding transition ΔHT*‡ (A1-1261; 2 μM A1-1261, saturating N-terminal peptide): ≈ 242 kJ/mol
Apparent TM of primary transition (A1-1261; 2 μM A1-1261, saturating concentrations of N-terminal peptide): 55.5 ° Celsius

Effect of peptide on unfolding enthalpy of A1-1261 (A1-1261; saturating peptide concentrations): did not change the unfolding enthalpy
Molecule: QLPTGVLGEPSDAVPTVYEVTPPG (SEQ ID NO.:2) [scrambled peptide, reference compound]
Effect of free peptide on platelet pause times on immobilized A1-1261 [3]: did not significantly change the pause times or translocation velocities
Effect of free peptide on platelet pause times or translocation velocities on immobilized A1-1238 (platelet GP1bα [4]): did not significantly change the pause times or translocation velocities

binding result [5]: no binding (tested: 300 µM)
B1: scrambled peptide (QLPTGVLGEPSDAVPTVYEVTPPG) (peptide)
peptide: H-QLPTGVLGEPSDAVPTVYEVTPPG-OH
notes: Synthetic control peptide, said to have the same amino acid composition as the N-terminal peptide in scrambled order

Source: patent US20150160214A1, “Quantitation of Cellular Adhesion Dynamics Across Immobilized Receptors Under Rheological Shear Flow” (Mayo Foundation for Medical Education and Research, priority 2013, published 2015)
